PMC3323579

target: yeast 26S proteasome (RPN11-3XFLAG) (yeast) (UniProt P43588); test: ELISA; competition: 8 nM apoMb on immobilised 26S proteasome with peptides 100 µM to 0.01 µM; 100 nM MG132 in all incubations; Ki from a one site binding fit

percent inhibition of apoMb binding at 100 µM peptide [%]	Substance
34	myoglobin peptide E7 (69-83)
65	myoglobin peptide F7 (90-104)

target: yeast 26S proteasome (RPN11-3XFLAG) (yeast) (UniProt P43588); test: ELISA; 26S proteasome (1 µg/ml, 0.37 nM) captured on plates coated with anti-FLAG antibody; Mb 580 nM to 0.006 nM in TBST with 1 mM ATP, 5 mM MgCl2, 0.1% BSA; bound Mb detected with anti-Mb antibody; one site specific binding fit

Substance	Kd [nM]
apomyoglobin L115C (G-helix mutant) (natural protein)	0.63
apomyoglobin M131C (H-helix mutant) (natural protein)	45
apomyoglobin T39C (C-helix mutant) (natural protein)	19.5
apomyoglobin V10C (A-helix mutant) (natural protein)	1.25

Second part, the substance after the results:

Kd [nM]	Substance
3.5	apomyoglobin (sperm whale myoglobin, heme removed), wild type (from UniProt P02185 1-154) (natural protein)
0.6	apomyoglobin L104C (G-helix mutant) (natural protein)
0.57	apomyoglobin F-helix mutant G80A/P88A/S92A/H97N (natural protein)

target: yeast 26S proteasome (RPN11-3XFLAG) (yeast) (UniProt P43588); test: not given

stimulation of the ATPase activity of the 26S proteasome (580 nM substrate, 37°C, 15 min) [fold]	Substance
2	apomyoglobin (sperm whale myoglobin, heme removed), wild type (from UniProt P02185 1-154) (natural protein)
